Measurements: patent US20130344582

Test system: collagen IV (BD Biosciences)

activated MMP-9 (Chemicon)
alignment of liquid crystal on the surface (zymography; enzymatic digestion of the protein substrate): after 30 minutes incubation with 1 pg MMP-9, the collagen IV has been digested and the liquid crystals align on the exposed SAM
